Measured values reported in patent US20240376151A1, “STAPLED PEPTIDES AND METHODS THEREOF” (FOG PHARMACEUTICALS, INC., priority 2022, published 2024).

Target: T1, RNF31 UBA domain (Homo sapiens, UniProt Q96EP0)
T1 construct: RNF31 UBA domain protein (residues 480-639) with N-terminal Thioredoxin-TEV-6×his-yBBr-3C tags; Thioredoxin (N, cleaved yes); made in house; host or cells: E. coli BL21 (DE3) pLysS
T1 sequence (Q96EP0 480-639): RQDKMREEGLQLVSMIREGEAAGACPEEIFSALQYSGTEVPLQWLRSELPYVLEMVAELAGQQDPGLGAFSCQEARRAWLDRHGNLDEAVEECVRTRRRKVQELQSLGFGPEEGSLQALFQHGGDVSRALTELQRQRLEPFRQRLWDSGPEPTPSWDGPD
Test: Phage Library Screening with NGS, RNF31 UBA domain
Format: binding
Details: for phage screen NGS read-out at Target Concentration 10 / phage screen NGS read-out at Target Concentration 30 / phage screen NGS read-out at Target Concentration 100 / phage screen NGS read-out at Target Concentration 300: no competitor; for Phage library screen NGS readout, Target Concentration 10 / Phage library screen NGS readout, Target Concentration 30 / Phage library screen NGS readout, Target Concentration 100 / Phage library screen NGS readout, Target Concentration 300 / Phage library screen NGS readout, Target Concentration 1000: RNF31 UBA domain cluster C46; for Phage library screen NGS readout, BLANK: cluster C46

[1] = target concentration 1000, first column
[2] = target concentration 1000, second column

DPAEWICRMAAMNCLYQ (Ac-DPAEWICRMAAMNCLYQ-NH2; not fully specified (bridges); cysteine pairing not given here)
phage screen NGS read-out at Target Concentration 10: 0 | phage screen NGS read-out at Target Concentration 30: 0 | phage screen NGS read-out at Target Concentration 100: 4 | phage screen NGS read-out at Target Concentration 300: 10

DPAEWLCQMAAHNCIYL
phage screen NGS read-out at Target Concentration 10: 0 | phage screen NGS read-out at Target Concentration 30: 1 | phage screen NGS read-out at Target Concentration 100: 2 | phage screen NGS read-out at Target Concentration 300: 13

DPAEYHCDAAAVWCYLM
phage screen NGS read-out at Target Concentration 10: 0 | phage screen NGS read-out at Target Concentration 30: 0 | phage screen NGS read-out at Target Concentration 100: 2 | phage screen NGS read-out at Target Concentration 300: 19

DPAFFTCVYAAVTCEMT
phage screen NGS read-out at Target Concentration 10: 0 | phage screen NGS read-out at Target Concentration 30: 0 | phage screen NGS read-out at Target Concentration 100: 0 | phage screen NGS read-out at Target Concentration 300: 3

DPAFSACVYAAYMCNQD
phage screen NGS read-out at Target Concentration 10: 0 | phage screen NGS read-out at Target Concentration 30: 0 | phage screen NGS read-out at Target Concentration 100: 1 | phage screen NGS read-out at Target Concentration 300: 4

DPAFSECVYAAFSCSWI
phage screen NGS read-out at Target Concentration 10: 1 | phage screen NGS read-out at Target Concentration 30: 2 | phage screen NGS read-out at Target Concentration 100: 3 | phage screen NGS read-out at Target Concentration 300: 9

DPAFSECVYAAIYCVHS
phage screen NGS read-out at Target Concentration 10: 0 | phage screen NGS read-out at Target Concentration 30: 0 | phage screen NGS read-out at Target Concentration 100: 0 | phage screen NGS read-out at Target Concentration 300: 7

DPAFSECVYAATMCLNH
phage screen NGS read-out at Target Concentration 10: 2 | phage screen NGS read-out at Target Concentration 30: 0 | phage screen NGS read-out at Target Concentration 100: 1 | phage screen NGS read-out at Target Concentration 300: 1

DPAFSLCVYAALFCEQQ
phage screen NGS read-out at Target Concentration 10: 0 | phage screen NGS read-out at Target Concentration 30: 0 | phage screen NGS read-out at Target Concentration 100: 8 | phage screen NGS read-out at Target Concentration 300: 20

DPAFSLCVYAAVECDHA
phage screen NGS read-out at Target Concentration 10: 0 | phage screen NGS read-out at Target Concentration 30: 0 | phage screen NGS read-out at Target Concentration 100: 0 | phage screen NGS read-out at Target Concentration 300: 1

DPAFSMCVYAAVTCVST
phage screen NGS read-out at Target Concentration 10: 0 | phage screen NGS read-out at Target Concentration 30: 0 | phage screen NGS read-out at Target Concentration 100: 0 | phage screen NGS read-out at Target Concentration 300: 4

DPAFSQCIYAAFQCDMQ
phage screen NGS read-out at Target Concentration 10: 0 | phage screen NGS read-out at Target Concentration 30: 0 | phage screen NGS read-out at Target Concentration 100: 0 | phage screen NGS read-out at Target Concentration 300: 2

DPAFSQCVYAAFFCREI
phage screen NGS read-out at Target Concentration 10: 1 | phage screen NGS read-out at Target Concentration 30: 0 | phage screen NGS read-out at Target Concentration 100: 2 | phage screen NGS read-out at Target Concentration 300: 20

DPAFSQCVYAAVVCEVQ
phage screen NGS read-out at Target Concentration 10: 2 | phage screen NGS read-out at Target Concentration 30: 0 | phage screen NGS read-out at Target Concentration 100: 11 | phage screen NGS read-out at Target Concentration 300: 55

DPAFSQCVYAAWHCESL
phage screen NGS read-out at Target Concentration 10: 1 | phage screen NGS read-out at Target Concentration 30: 0 | phage screen NGS read-out at Target Concentration 100: 2 | phage screen NGS read-out at Target Concentration 300: 7

DPAFSRCVYAAFTCQTF
phage screen NGS read-out at Target Concentration 10: 0 | phage screen NGS read-out at Target Concentration 30: 0 | phage screen NGS read-out at Target Concentration 100: 1 | phage screen NGS read-out at Target Concentration 300: 10

DPAFSRCVYAAVACEDH
phage screen NGS read-out at Target Concentration 10: 0 | phage screen NGS read-out at Target Concentration 30: 1 | phage screen NGS read-out at Target Concentration 100: 3 | phage screen NGS read-out at Target Concentration 300: 31

DPAFSTCIYAAVMCMDQ
phage screen NGS read-out at Target Concentration 10: 0 | phage screen NGS read-out at Target Concentration 30: 0 | phage screen NGS read-out at Target Concentration 100: 3 | phage screen NGS read-out at Target Concentration 300: 19

DPAFSTCVYAAIICNDT
phage screen NGS read-out at Target Concentration 10: 0 | phage screen NGS read-out at Target Concentration 30: 0 | phage screen NGS read-out at Target Concentration 100: 7 | phage screen NGS read-out at Target Concentration 300: 29

DPAFSTCVYAAVFCQNT
phage screen NGS read-out at Target Concentration 10: 0 | phage screen NGS read-out at Target Concentration 30: 0 | phage screen NGS read-out at Target Concentration 100: 1 | phage screen NGS read-out at Target Concentration 300: 8

DPAFYECVYAAVTCTQF
phage screen NGS read-out at Target Concentration 10: 0 | phage screen NGS read-out at Target Concentration 30: 0 | phage screen NGS read-out at Target Concentration 100: 0 | phage screen NGS read-out at Target Concentration 300: 2

DPAHEHCTAAASWCYIL
phage screen NGS read-out at Target Concentration 10: 0 | phage screen NGS read-out at Target Concentration 30: 0 | phage screen NGS read-out at Target Concentration 100: 3 | phage screen NGS read-out at Target Concentration 300: 8

DPAHEHCTSAAAWCMLL
phage screen NGS read-out at Target Concentration 10: 0 | phage screen NGS read-out at Target Concentration 30: 0 | phage screen NGS read-out at Target Concentration 100: 0 | phage screen NGS read-out at Target Concentration 300: 2

DPAHHHCQAAAAWCWVM
phage screen NGS read-out at Target Concentration 10: 2 | phage screen NGS read-out at Target Concentration 30: 0 | phage screen NGS read-out at Target Concentration 100: 4 | phage screen NGS read-out at Target Concentration 300: 19

DPAHILCEMAARNCLYN
phage screen NGS read-out at Target Concentration 10: 3 | phage screen NGS read-out at Target Concentration 30: 1 | phage screen NGS read-out at Target Concentration 100: 1 | phage screen NGS read-out at Target Concentration 300: 1

DPAHVHCQAAAQWCVLL
phage screen NGS read-out at Target Concentration 10: 0 | phage screen NGS read-out at Target Concentration 30: 1 | phage screen NGS read-out at Target Concentration 100: 1 | phage screen NGS read-out at Target Concentration 300: 6

DPAHVRCTSAALWCNIF
Phage library screen NGS readout, Target Concentration 10: 0 | Phage library screen NGS readout, Target Concentration 30: 0 | Phage library screen NGS readout, Target Concentration 100: 3 | Phage library screen NGS readout, Target Concentration 300: 4 | Phage library screen NGS readout, Target Concentration 1000 [1]: 5 | Phage library screen NGS readout, Target Concentration 1000 [2]: 7 | Phage library screen NGS readout, BLANK (column 1 of 5): 0 | Phage library screen NGS readout, BLANK (column 2 of 5): 0 | Phage library screen NGS readout, BLANK (column 3 of 5): 0 | Phage library screen NGS readout, BLANK (column 4 of 5): 0 | Phage library screen NGS readout, BLANK (column 5 of 5): 0

DPAITHCTAAAMWCHLL
phage screen NGS read-out at Target Concentration 10: 1 | phage screen NGS read-out at Target Concentration 30: 0 | phage screen NGS read-out at Target Concentration 100: 9 | phage screen NGS read-out at Target Concentration 300: 80

DPALQHCAAAASWCWLM
phage screen NGS read-out at Target Concentration 10: 1 | phage screen NGS read-out at Target Concentration 30: 2 | phage screen NGS read-out at Target Concentration 100: 4 | phage screen NGS read-out at Target Concentration 300: 20

DPALQSCLSAAVYCTVS
Phage library screen NGS readout, Target Concentration 10: 0 | Phage library screen NGS readout, Target Concentration 30: 0 | Phage library screen NGS readout, Target Concentration 100: 6 | Phage library screen NGS readout, Target Concentration 300: 10 | Phage library screen NGS readout, Target Concentration 1000 [1]: 9 | Phage library screen NGS readout, Target Concentration 1000 [2]: 10 | Phage library screen NGS readout, BLANK (column 1 of 5): 0 | Phage library screen NGS readout, BLANK (column 2 of 5): 0 | Phage library screen NGS readout, BLANK (column 3 of 5): 0 | Phage library screen NGS readout, BLANK (column 4 of 5): 0 | Phage library screen NGS readout, BLANK (column 5 of 5): 0

DPALRTCLSAAVFCAVA
Phage library screen NGS readout, Target Concentration 10: 0 | Phage library screen NGS readout, Target Concentration 30: 6 | Phage library screen NGS readout, Target Concentration 100: 10 | Phage library screen NGS readout, Target Concentration 300: 18 | Phage library screen NGS readout, Target Concentration 1000 [1]: 15 | Phage library screen NGS readout, Target Concentration 1000 [2]: 25 | Phage library screen NGS readout, BLANK (column 1 of 5): 0 | Phage library screen NGS readout, BLANK (column 2 of 5): 0 | Phage library screen NGS readout, BLANK (column 3 of 5): 1 | Phage library screen NGS readout, BLANK (column 4 of 5): 0 | Phage library screen NGS readout, BLANK (column 5 of 5): 1

DPALSQCVYAAVFCQNL
phage screen NGS read-out at Target Concentration 10: 0 | phage screen NGS read-out at Target Concentration 30: 2 | phage screen NGS read-out at Target Concentration 100: 0 | phage screen NGS read-out at Target Concentration 300: 4

DPALSTCVYAAVMCQDV
phage screen NGS read-out at Target Concentration 10: 0 | phage screen NGS read-out at Target Concentration 30: 0 | phage screen NGS read-out at Target Concentration 100: 2 | phage screen NGS read-out at Target Concentration 300: 4

DPALTHCTAAAYWCYVM
phage screen NGS read-out at Target Concentration 10: 0 | phage screen NGS read-out at Target Concentration 30: 0 | phage screen NGS read-out at Target Concentration 100: 0 | phage screen NGS read-out at Target Concentration 300: 2

DPALTNCFSAAVYCAMF
Phage library screen NGS readout, Target Concentration 10: 8 | Phage library screen NGS readout, Target Concentration 30: 39 | Phage library screen NGS readout, Target Concentration 100: 131 | Phage library screen NGS readout, Target Concentration 300: 239 | Phage library screen NGS readout, Target Concentration 1000 [1]: 297 | Phage library screen NGS readout, Target Concentration 1000 [2]: 291 | Phage library screen NGS readout, BLANK (column 1 of 5): 0 | Phage library screen NGS readout, BLANK (column 2 of 5): 1 | Phage library screen NGS readout, BLANK (column 3 of 5): 1 | Phage library screen NGS readout, BLANK (column 4 of 5): 0 | Phage library screen NGS readout, BLANK (column 5 of 5): 0

DPAMIQCLSAAVYCVHY
phage screen NGS read-out at Target Concentration 10: 1 | phage screen NGS read-out at Target Concentration 30: 3 | phage screen NGS read-out at Target Concentration 100: 8

DPAMYICEMAAANCLYQ
phage screen NGS read-out at Target Concentration 10: 0 | phage screen NGS read-out at Target Concentration 30: 1 | phage screen NGS read-out at Target Concentration 100: 1 | phage screen NGS read-out at Target Concentration 300: 6

DPANEHCIAAAWWCQIL
phage screen NGS read-out at Target Concentration 10: 0 | phage screen NGS read-out at Target Concentration 30: 0 | phage screen NGS read-out at Target Concentration 100: 0 | phage screen NGS read-out at Target Concentration 300: 3
